The assay has as its target T1, Narp (recombinant, expressed in transfected HEK-293 cells) (Rattus norvegicus (Rat), UniProt P97738 15-432).
T1 sequence: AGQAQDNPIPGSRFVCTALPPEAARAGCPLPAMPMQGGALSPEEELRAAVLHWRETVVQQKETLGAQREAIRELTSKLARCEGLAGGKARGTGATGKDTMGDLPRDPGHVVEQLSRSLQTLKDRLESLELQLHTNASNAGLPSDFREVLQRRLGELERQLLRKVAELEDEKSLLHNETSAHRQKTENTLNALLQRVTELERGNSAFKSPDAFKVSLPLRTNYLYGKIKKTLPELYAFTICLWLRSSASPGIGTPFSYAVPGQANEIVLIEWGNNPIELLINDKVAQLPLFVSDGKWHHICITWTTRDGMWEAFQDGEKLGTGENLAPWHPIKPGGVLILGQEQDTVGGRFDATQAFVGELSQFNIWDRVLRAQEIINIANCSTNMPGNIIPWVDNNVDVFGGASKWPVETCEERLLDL
Put plainly: cell-based or functional assay.

B1: C-terminal myc-tagged version of Narp (designated myc-Narp) (ligand, not shown: small tags and cut ends)
chain: T1 sequence
Consider B1, for which the “increase in intercellular myc-Narp*GluR1 co-clusters when untagged Narp is co-expressed with GluR1 in the apposing 293 cell” value is 2 fold.

Values taken from US7217525 (Johns Hopkins, dated 2007).
